What all share (experiment): competition
In data set [1] the target is T1, Orf16 (KfrA homolog), His-tagged (Paenibacillus popilliae ATCC 14706T …, UniProt A0A0D6CB60 1-326).
T1 sequence: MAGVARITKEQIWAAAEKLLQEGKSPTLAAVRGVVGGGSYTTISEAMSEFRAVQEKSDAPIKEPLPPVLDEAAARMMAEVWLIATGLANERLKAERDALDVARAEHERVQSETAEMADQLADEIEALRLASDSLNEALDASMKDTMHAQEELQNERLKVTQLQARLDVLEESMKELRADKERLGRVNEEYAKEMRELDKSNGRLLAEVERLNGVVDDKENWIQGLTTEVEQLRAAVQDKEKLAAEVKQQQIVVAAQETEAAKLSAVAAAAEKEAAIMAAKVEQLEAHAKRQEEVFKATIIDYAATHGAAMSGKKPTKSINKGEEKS

In data set [2] the target is T1, Orf16 (KfrA homolog), His-tagged. The source holds these as a separate data set.
Data set [3] concerns the target T2, Orf8 (KfrA homolog), His-tagged (Paenibacillus popilliae ATCC 14706T …, UniProt A0A0D6CAG5 1-327).
T2 sequence: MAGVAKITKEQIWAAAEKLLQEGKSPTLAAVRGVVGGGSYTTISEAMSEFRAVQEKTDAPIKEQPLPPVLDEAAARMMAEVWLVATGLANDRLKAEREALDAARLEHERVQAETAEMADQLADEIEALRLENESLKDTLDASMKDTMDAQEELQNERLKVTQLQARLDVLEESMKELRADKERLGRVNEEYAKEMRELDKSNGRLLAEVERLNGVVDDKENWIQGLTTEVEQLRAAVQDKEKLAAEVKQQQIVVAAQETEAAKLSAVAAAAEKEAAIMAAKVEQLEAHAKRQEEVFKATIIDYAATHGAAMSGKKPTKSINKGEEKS

Where two headings read alike, the source gives them in different places.

B1: IR1 (dsDNA)
DNA 1: CATGAAAAAATCATG
DNA 2: GTACCATGATTTTTTCATGAGCT
Take B1: the binding result in data set [1] was “no binding”.

B2: IR3 (dsDNA)
DNA 1: CATACTACATATTACATATTACATACTACATACTACAATATGGAGGGTG
DNA 2: GTACCACCCTCCATATTGTAGTATGTAGTATGTAATATGTAATATGTAGTATGAGCT
As to B2, the binding result in data set [2] and in data set [3] was “binds” throughout.

B3: IR4 (dsDNA)
DNA 1: CATACTACATACAATATACAACATACTACAATATGGAGGGTG
DNA 2: GTACCACCCTCCATATTGTAGTATGTTGTATATTGTATGTAGTATGAGCT
With B3, the binding result in data set [2] and in data set [3] was “binds” each time.

Values taken from PMC4372654.
